Measured values: PMC6288613, “Mouse REC114 is essential for meiotic DNA double-strand break formation and forms a complex with MEI4” (Life Science Alliance, 2018)

Target: the molecule itself
Experiment: SEC-MALS; SEC-MALLS, Superdex 75; 50 ul of purified protein injected at 10, 5 and 2 mg/ml; dimer to monomers, fast exchange

B1: Mouse REC114 (15-159) (domain or fragment, UniProt Q9CWH4 15-159, looked up)
chain: GEVSQWSLKRYGRFMLLDNVGSPGPSSEAAAAGSPTWKVFESSEESGSLVLTIVVSGHFFISQGQTLLEGFSLIGSKNWLKIVRRMDCLLFGTTIKNKSRMFRVQFSGESKEEALERCCGCVQTLAQYVTVQEPDSTTQELQQSQ
notes: REC114, mouse, residues 15-159 (PH domain), expressed from pProEXHTb; final crystallographic model includes residues 15-150; A selenomethionine-substituted form was also crystallised for phasing; also called REC114 PH domain; REC114 N-terminal region; source: E. coli BL21-Gold (DE3), purified (Ni2+ resin, TEV cleavage, second Ni2+ column, size-exclusion chromatography)
With B1 the “stoichiometry N” value was 2.
